Measured values reported in patent US7361485.

Key:
[1] = target: T1, modified pro-caspase-3 with an aggrecanase recognition sequence, P42574
T1 chain: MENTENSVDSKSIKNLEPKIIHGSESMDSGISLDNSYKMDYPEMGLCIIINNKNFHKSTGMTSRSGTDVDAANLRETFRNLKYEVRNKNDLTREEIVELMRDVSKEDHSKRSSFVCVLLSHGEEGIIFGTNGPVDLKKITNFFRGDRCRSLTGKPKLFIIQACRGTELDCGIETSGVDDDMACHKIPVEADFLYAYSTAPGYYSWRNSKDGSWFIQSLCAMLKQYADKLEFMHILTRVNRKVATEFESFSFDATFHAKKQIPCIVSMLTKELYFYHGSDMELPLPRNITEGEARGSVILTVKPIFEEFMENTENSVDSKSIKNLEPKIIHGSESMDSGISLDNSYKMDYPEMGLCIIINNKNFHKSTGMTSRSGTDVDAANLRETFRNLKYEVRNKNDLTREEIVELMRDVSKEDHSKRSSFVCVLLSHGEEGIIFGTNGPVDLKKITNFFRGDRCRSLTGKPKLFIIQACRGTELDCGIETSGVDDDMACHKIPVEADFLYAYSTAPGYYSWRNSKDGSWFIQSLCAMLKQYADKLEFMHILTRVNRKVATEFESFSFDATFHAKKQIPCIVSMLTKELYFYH

[2] = target: T2, modified pro-caspase-7 with an aggrecanase activation sequence, P55210
T2 chain: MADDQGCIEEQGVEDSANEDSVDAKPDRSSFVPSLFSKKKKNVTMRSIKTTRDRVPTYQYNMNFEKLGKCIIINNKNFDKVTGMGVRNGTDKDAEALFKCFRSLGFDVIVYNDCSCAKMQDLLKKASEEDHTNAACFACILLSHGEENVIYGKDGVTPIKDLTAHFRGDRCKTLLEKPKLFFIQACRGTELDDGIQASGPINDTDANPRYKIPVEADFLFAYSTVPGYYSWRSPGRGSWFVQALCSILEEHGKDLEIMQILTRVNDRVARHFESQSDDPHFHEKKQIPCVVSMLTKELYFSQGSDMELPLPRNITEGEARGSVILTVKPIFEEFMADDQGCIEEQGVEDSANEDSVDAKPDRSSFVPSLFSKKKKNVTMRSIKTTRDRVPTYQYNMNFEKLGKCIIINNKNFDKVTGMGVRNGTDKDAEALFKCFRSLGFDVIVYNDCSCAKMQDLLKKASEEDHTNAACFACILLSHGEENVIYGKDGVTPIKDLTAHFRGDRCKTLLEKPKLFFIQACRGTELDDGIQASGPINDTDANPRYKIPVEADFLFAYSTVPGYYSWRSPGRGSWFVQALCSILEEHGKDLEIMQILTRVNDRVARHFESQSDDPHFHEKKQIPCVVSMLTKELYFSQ

B1: aggrecanase (ADAMTS-4) (protein)
chain: FASLSRFVETLVVADDKMAAFHGAGLKRYLLTVMAAAAKAFKHPSIRNPVSLVVTRLVILGSGEEGPQVGPSAAQTLRSFCAWQRGLNTPEDSDPDHFDTAILFTRQDLCGVSTCDTLGMADVGTVCDPARSCAIVEDDGLQSAFTAAHELGHVFNMLHDNSKPCISLNGPLSTSRHVMAPVMAHVDPEEPWSPCSARFITDFLDNGYGHCLLDKPEAPLHLPVTFPGKDYDADRQCQLTFGPDSRHCPQLPPPCAALWCSGHLNGHAMCQTKHSPWADGTPCGPAQACMGGRCLHMDQLQDFNIPQAGGWGPWGPWGDCSRTCGGGVQFSSRDCTRPVPRNGGKYCEGRRTRFRSCNTEDCPTGSALTFREEQCAAYNHRTDLFKSFPGPMDWVPRYTGVAPQDQCKLTCQAQALGYYYVLEPRVVDGTPCSPDSSSVCVQGRCIHAGCDRIIGSKKKFDKCMVCGGDGSGCSKQSGSFRKFRYGYNNVVTIPAGATHILVRQQGNPGHRSIYLALKLPDGSYALNGEYTLMPSPTDVVLPGAVSLRYSGATAASETLSGHGPLAQPLTLQVLVAGNPQDTRLRYSFFVPRPTPSTPRPTPQDWLHRRAQILEILRRRPWAGRK
[1]
  caspase activity (DEVD-pNA, A405): Upon incubation of the various pro-caspase variants with their respective target enzymes a clear increase in caspase activity was observed.
[2]
  caspase activity (DEVD-pNA, A405): Upon incubation of the various pro-caspase variants with their respective target enzymes a clear increase in caspase activity was observed.
